# According to US11278600B2, “Human alpha-galactosidase variants” (Codexis, Inc., priority 2014, dated 2022):
# Substitutions are numbered along the chain they refer to.
# B1: 265 (protein)
# chain: LDNGLARTPTMGWLHWERFMCNLDCQEEPDSCISEKLFMEMAELMVSEGWKDAGYEYLCIDDCWMAPQRDSEGRLQADPQRFPHGIRQLANYVHSKGLKFGIYADVGNKTCAGFPGSFGYYDIDAQTFADWGVDLLKFDGCYCDSLENLADGYKHMSLALNRTGRSIVYSCEWPLYMWPFQKPNYTEIRQYCNHWRNFADIDDSWASIKSILDWTSFNQEKIVDVAGPGGWNDPDMLVIGNFGLSWNQQVTQMALWAIMAAPLFMSNDLRHISPQAKALLQDKDVIAINQDPLGKQGYQLRQGDNFEVWERPLSGLAWAVAMINRQEIGGPRSYTIAVASLGKGVACNPACFITQLLPVKRKLGFYEWTSRLKSHVNPTGTVLLQLENTMQMSLKDLL
# modifications: Synthetic Polypeptide sequence of Variant No. 265 of mature Human GLA
# B2: 271 (protein)
# chain: B1 chain with L44R, F100L, E187G, K221R, A337P, A350G, K373R, V376I
# modifications: Synthetic Polypeptide sequence of Variant No. 271 of mature Human GLA
# B3: 273 (protein)
# chain: B1 chain with L44R, F100L, K221R, E367D, T369D, K373R, V376I
# modifications: Synthetic Polypeptide sequence of Variant No. 273 of mature Human GLA
# B4: 270 (protein)
# chain: B1 chain with L44R, F100L, C143Y, K221R, A337P, A350G, K373R, V376I
# modifications: Synthetic Polypeptide sequence of Variant No. 270 of mature Human GLA
# B5: 268 (protein)
# chain: B1 chain with K221R
# modifications: Synthetic Polypeptide sequence of Variant No. 268 of mature Human GLA
# B6: 266 (protein)
# chain: B1 chain with K221T, M322I, K343E, F365L, V376I
# modifications: Synthetic Polypeptide sequence of Variant No. 266 of mature Human GLA
# B7: 269 (protein)
# chain: B1 chain with L37I, F100L, N247D, M322I, V376I
# modifications: Synthetic Polypeptide sequence of Variant No. 269 of mature Human GLA
# B8: 274 (protein)
# chain: B1 chain with L44R, F100L, F217R, K221R, A350G, K373R, V376I
# modifications: Synthetic Polypeptide sequence of Variant No. 274 of mature Human GLA
# B9: 272 (protein)
# chain: B1 chain with L44R, F100L, K221R, K373R, V376I
# modifications: Synthetic Polypeptide sequence of Variant No. 272 of mature Human GLA
# B10: 267 (protein)
# chain: B1 chain with K221T, N247D, Q302K, K343D, F365L, V376I
# modifications: Synthetic Polypeptide sequence of Variant No. 267 of mature Human GLA
# B11: 275 (protein)
# chain: B1 chain with L44R, F100L, F217R, K221R, N247D, A337P, K373R, V376I
# modifications: Synthetic Polypeptide sequence of Variant No. 275 of mature Human GLA
# B12: 276 (protein)
# chain: LDNGLARTPTMGWLHWERFMCNLDCQEEPDSCISEKLFMEMAERMVSEGWKDAGYEYLCIDDCWMAPQRDSEGRLQADPQRFPHGIRQLANYVHSKGLKLGIYADVGNKTCAGFPGSFGYYDIDAQTFADWGVDLLKFDGCYCDSLENLADGYKHMSLALNRTGRSIVYSCEWPLYMWPFQKPNYTEIRQYCNHWRNFADIDDSWASIKSILDWTSRNQERIVDVAGPGGWNDPDMLVIGNFGLSWDQQVTQMALWAIMAAPLFMSNDLRHISPQAKALLQDKDVIAINQDPLGKQGYQLRQGDNFEVWERPLSGDAWAVAMINRQEIGGPRSYTIPVASLGKGVACNPGCFITQLLPVKRKLGFYDWDSRLRSHINPTGTVLLQLENTMQMSLKDLL
# modifications: Synthetic Polypeptide sequence of Variant No. 276 of mature Human GLA
# B13: 277 (protein)
# chain: B12 chain with G350A
# modifications: Synthetic Polypeptide sequence of Variant No. 277 of mature Human GLA
# How the values were obtained:
# Format in all cases: biochemical
# [1] = HTP-analysis of supernatants pretreated with base (MUGal hydrolysis); details: challenge at pH 7.6; activity of the variant/activity of Rd2BB (SEQ ID NO: 10); yeast culture supernatant
# Procedure, shortened: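 GLA variants secreted from yeast INVSc1; culture supernatants pre-incubated with McIlvaine buffer pH 7.0–8.2 or 200 mM bicarbonate pH 9.1–9.7 at 37° C. for 1–18 h. Residual activity: MUGal (4 mM stock) hydrolysis at pH 4.3–4.8, 37° C., 30–180 min, carbonate quench; fluorescence Ex 355/Em 448 nm.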
# [2] = HTP-analysis of supernatants pretreated with acid (MUGal hydrolysis); details: challenge at pH 4.2; activity of the variant/activity of Rd2BB (SEQ ID NO: 10); yeast culture supernatant
# Procedure, shortened: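 MUGal hydrolysis was tracked by fluorescence (Ex 355 nm, Em 448 nm) after a 30-180 min reaction at 37° C. in pH 4.8 McIlvaine/citrate buffer, stopped with 1 M sodium carbonate. Beforehand, yeast (INVSc1) culture supernatants carrying GLA variants were held 1-3 h at 37° C. in acidic McIlvaine buffer, pH 3.3-4.3.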
# [3] = HTP-analysis of supernatants pretreated with bovine serum (MUGal hydrolysis); details: activity of the variant/activity of Rd2BB (SEQ ID NO: 10), yeast culture supernatant
# Procedure, shortened: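 Yeast INVSc1 culture supernatants containing secreted GLA variants were mixed with bovine serum (20:80) and held 1 h at 37° C. Serum-treated samples then reacted with MUGal (4 mM stock) in citrate/McIlvaine buffer (pH 4.3/4.8) for 180 min at 37° C., were quenched with sodium carbonate, and read by fluorescence (Ex 355, Em 448 nm).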
# [4] = HTP-analysis of yeast culture supernatants, no challenge (MUGal hydrolysis); details: activity of the variant/activity of Rd2BB (SEQ ID NO: 10), yeast culture supernatant
# Procedure, shortened: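 GLA variants were expressed in INVSc1 yeast grown in SD-Ura broth with glucose at 30° C., and culture supernatants were collected after 66-84 h. Supernatant was mixed with McIlvaine buffer pH 4.8 and MUGal (2 mM stock) in 50 mM citrate, 200 mM KCl, pH 4.6, incubated at 37° C. for 30-180 minutes, then quenched with sodium carbonate.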
Molecule,Relative Activity of GLA Variants After Challenge at pH 7.6 [1],Relative Activity of GLA Variants After Challenge at pH 4.2 [2],Relative Activity of GLA Variants After Challenge with Serum [3],Relative Activity of GLA Variants After No Challenge (NC) [4]
B1,+ (+ = 0.5 to 1.5 relative activity over Rd2BB (SEQ ID NO: 10)),+ (+ = 0.5 to 1.5 relative activity over Rd2BB (SEQ ID NO: 10)),+ (+ = 0.5 to 1.5 relative activity over Rd2BB (SEQ ID NO: 10)),+ (+ = 0.5 to 1.5 relative activity over Rd2BB (SEQ ID NO: 10))
B2,+ (+ = 0.5 to 1.5 relative activity over Rd2BB (SEQ ID NO: 10)),+ (+ = 0.5 to 1.5 relative activity over Rd2BB (SEQ ID NO: 10)),+ (+ = 0.5 to 1.5 relative activity over Rd2BB (SEQ ID NO: 10)),− (− = <0.5 relative activity over Rd2BB (SEQ ID NO: 10))
B3,+ (+ = 0.5 to 1.5 relative activity over Rd2BB (SEQ ID NO: 10)),+ (+ = 0.5 to 1.5 relative activity over Rd2BB (SEQ ID NO: 10)),+ (+ = 0.5 to 1.5 relative activity over Rd2BB (SEQ ID NO: 10)),+ (+ = 0.5 to 1.5 relative activity over Rd2BB (SEQ ID NO: 10))
B4,+ (+ = 0.5 to 1.5 relative activity over Rd2BB (SEQ ID NO: 10)),+ (+ = 0.5 to 1.5 relative activity over Rd2BB (SEQ ID NO: 10)),+ (+ = 0.5 to 1.5 relative activity over Rd2BB (SEQ ID NO: 10)),+ (+ = 0.5 to 1.5 relative activity over Rd2BB (SEQ ID NO: 10))
B5,+ (+ = 0.5 to 1.5 relative activity over Rd2BB (SEQ ID NO: 10)),+ (+ = 0.5 to 1.5 relative activity over Rd2BB (SEQ ID NO: 10)),+ (+ = 0.5 to 1.5 relative activity over Rd2BB (SEQ ID NO: 10)),+ (+ = 0.5 to 1.5 relative activity over Rd2BB (SEQ ID NO: 10))
B6,+++ (+++ = >2.5 relative activity over Rd2BB (SEQ ID NO: 10)),++ (++ = 1.5 to 2.5 relative activity over Rd2BB (SEQ ID NO: 10)),++ (++ = 1.5 to 2.5 relative activity over Rd2BB (SEQ ID NO: 10)),++ (++ = 1.5 to 2.5 relative activity over Rd2BB (SEQ ID NO: 10))
B7,+ (+ = 0.5 to 1.5 relative activity over Rd2BB (SEQ ID NO: 10)),+ (+ = 0.5 to 1.5 relative activity over Rd2BB (SEQ ID NO: 10)),+ (+ = 0.5 to 1.5 relative activity over Rd2BB (SEQ ID NO: 10)),− (− = <0.5 relative activity over Rd2BB (SEQ ID NO: 10))
B8,+ (+ = 0.5 to 1.5 relative activity over Rd2BB (SEQ ID NO: 10)),+ (+ = 0.5 to 1.5 relative activity over Rd2BB (SEQ ID NO: 10)),+ (+ = 0.5 to 1.5 relative activity over Rd2BB (SEQ ID NO: 10)),+ (+ = 0.5 to 1.5 relative activity over Rd2BB (SEQ ID NO: 10))
B9,+ (+ = 0.5 to 1.5 relative activity over Rd2BB (SEQ ID NO: 10)),+ (+ = 0.5 to 1.5 relative activity over Rd2BB (SEQ ID NO: 10)),+ (+ = 0.5 to 1.5 relative activity over Rd2BB (SEQ ID NO: 10)),+ (+ = 0.5 to 1.5 relative activity over Rd2BB (SEQ ID NO: 10))
B10,+++ (+++ = >2.5 relative activity over Rd2BB (SEQ ID NO: 10)),+++ (+++ = >2.5 relative activity over Rd2BB (SEQ ID NO: 10)),+++ (+++ = >2.5 relative activity over Rd2BB (SEQ ID NO: 10)),+++ (+++ = >2.5 relative activity over Rd2BB (SEQ ID NO: 10))
B11,++ (++ = 1.5 to 2.5 relative activity over Rd2BB (SEQ ID NO: 10)),++ (++ = 1.5 to 2.5 relative activity over Rd2BB (SEQ ID NO: 10)),++ (++ = 1.5 to 2.5 relative activity over Rd2BB (SEQ ID NO: 10)),++ (++ = 1.5 to 2.5 relative activity over Rd2BB (SEQ ID NO: 10))
B12,+++ (+++ = >2.5 relative activity over Rd2BB (SEQ ID NO: 10)),+++ (+++ = >2.5 relative activity over Rd2BB (SEQ ID NO: 10)),+++ (+++ = >2.5 relative activity over Rd2BB (SEQ ID NO: 10)),+++ (+++ = >2.5 relative activity over Rd2BB (SEQ ID NO: 10))
B13,+++ (+++ = >2.5 relative activity over Rd2BB (SEQ ID NO: 10)),+++ (+++ = >2.5 relative activity over Rd2BB (SEQ ID NO: 10)),+++ (+++ = >2.5 relative activity over Rd2BB (SEQ ID NO: 10)),+++ (+++ = >2.5 relative activity over Rd2BB (SEQ ID NO: 10))
